Reference: the supplement of paper PMC9170038

System: K4 kissing-loop RNA reporter
Assay: apparent KD of K4 kissing-loop reporter; higher = weaker reporter binding
Conditions: Eterna round: R107
Protocol: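 RNA-MaP round R107: designed RNA switches with theophylline, tryptophan, arginine or FMN aptamers are transcribed on-chip within common flanks. They are titrated with a labelled K4 kissing-loop RNA reporter in RNA-MaP buffer (100 mM Tris pH 7.5, 80 mM KCl, 4 mM MgCl2), without ligand or with the indicated ligand. Median apparent KD per design.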

[1] = input ligand: theophylline 20 uM
[2] = input ligand: tryptophan 2.4 mM
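Note: bound reporter read as fluorescence of individual clusters on recovered sequencing chips by microscopy, with normalized cluster intensities fitted with a binding model.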

Row | Sequence | apparent KD of K4 kissing-loop reporter (input ligand: FMN 200 uM) | apparent KD of K4 kissing-loop reporter (input ligand: arginine 13.2 mM) | apparent KD of K4 kissing-loop reporter (input ligand: none) | apparent KD of K4 kissing-loop reporter [1] | apparent KD of K4 kissing-loop reporter [2]
1 | CGUUUAUAGCAGGAUACCAGUACCCAUUAUGUACGUUUAUAGUAGAGUGAUGUUCUAAAGUACCCUUGGCAGCUUCCUGUGUCCC [ExTheophylB.Ab] | 163 nM | 178 nM | 190 nM | 198 nM | 150 nM
2 | AAUAUGAAGCAGUGAUGUUGCUUAUGAGAAGGAGCGCACGAAAGUGCAGGUAGGUCGCUCAGCCAAGUGGACGAAAACGUCCACA [whbob_SS_Arginine_A_sa107] | 98.3 nM | 99.9 nM | 86.6 nM | 87.2 nM | 91 nM
3 | AUAUCUGAUAGCAGUGAUGUUGCUUCAGAUACCAGACGAGAUCAUGUCCCUUGGCAGCUGACACGGCACGUGCUAGGUUAGAUGA [Theo A Ex t2] | 101 nM | 92.6 nM | 101 nM | 103 nM | 101 nM
4 | GGUAGCAUGGCGGCCGCCACUACCUAGUGAUGUUAGGCUGUGGACAUAGGAGCAAGAUAAAUAUGUAGGACCGGGCCAUGCUACC | 129 nM | 88.8 nM | 103 nM | 119 nM | 111 nM
5 | UUAGAUCAAAGAUCAGUCUUAUUGAGAGAACGAGGACCGGUACGGCCGCCACUCGAGUGAUGUUCGAGAACUCUCUUGACAAAUU [AK1 EXC Tryptophan A] | 158 nM | 150 nM | 169 nM | 133 nM | 258 nM
6 | AAGUUGAACUGAAGGAGCGAGAAAUAGAAUGUAAGAAUAUAUGCUAGUGAUGUUAGAAAUUCUCAGGUAGGUCGCAGUAAGAAUU [V1] | 368 nM | 357 nM | 442 nM | 510 nM | 317 nM
7 | UUUGGAGUGGGAGGAUAUCCUAAUAUGGGUGAUGUUAGCGAUGUUGAAAGUGUAGUGAUGUUGUGCGGAGAAGGUCCAGUGUAGA [BDazzled - #14 - Exc. FMN B] | 242 nM | 165 nM | 285 nM | 292 nM | 240 nM
8 | AAGCAGUCACUCGCAGCCAUCGAAGAUGGUCGAGGACCGGUACGGCCGCCACUCGGAGUGAUGUUCCGAAGACUGCAAAAUAAAA | 281 nM | 259 nM | 282 nM | 325 nM | 400 nM
9 | ACGGCGCUGGAACCAGUAAUGGGAAGAAUGCGAGGACCGGUACGGCCGCCACUCGCUUCCAGUGAUGUUGGAAGUGAGCCAACAA [Geerzaedre] | 272 nM | 275 nM | 304 nM | 277 nM | 181 nM
10 | AAGCAGUUCUCAAAGAGUACUGCAGGACAGCAGGAUAUAGUGAUGUUGAGAAGGGCUGUCCCGUCUGCAUGAAACAUGCAGACGA [Simply curious] | 1350 nM | 688 nM | 808 nM | 1290 nM | 688 nM
11 | UGGAGUUGACGAAAAGUCAACUCCUGAGAAGGAGCGGACGAAAGUCCAGGUAGGUCGCUCACUACCAGUGAUGUUGGUACUUGAA | 276 nM | 293 nM | 259 nM | 428 nM | 185 nM
12 | GUGCAAAGCACCGGCACGAGCAGCUUAAAGGAGGAUAUGACGAAAGUCAGAAGGUUUAGUGAUGUUAGGCCUUGCUUGAGUCGAA [#01 K4 FMN A Exclusion] | 326 nM | 265 nM | 282 nM | 413 nM | 270 nM
13 | AAUGUACAGGGAAGGAGCGUAGUCCAGUGAUGUUGGAGUUAAAUACCAGUGAUGUUGGUUAUACAGGUAGGUCGCCCUAAAGUGC [Exclusion Arginine B Gf 4] | 87 nM | 65.3 nM | 80.9 nM | 84.3 nM | 76 nM
14 | AUGCGCGUGCGAUGGAAAUCGCACGCGCAUCGAGGACCGGUACGGCCGCCACUCGCUCGCGCCGAGUGAUGUUCGGCCGGCGAAC [#2 SameState - Tryptophan_A Attempt #3 (HarryS)] | 180 nM | 162 nM | 283 nM | 329 nM | 599 nM
15 | UUCAGACUACUACUAUUUAGUAGUAUAUACUAGGAUAUCCAGAUAUGGAGAAGGAGUGAUGUUCCUUAGUAGUAGUGAAUUAAAU [KL-XFMN-A6] | 145 nM | 138 nM | 128 nM | 144 nM | 114 nM
16 | GCUCAGGAGUGAUGUUCCAAGUGGUGUUAACGAGGACCGGUACGGCCGCCACUCGAUACGGCCGGACCGUAGGAUAAACUAGAGC [Same State - Tryptophan A (Freestyle 11)] | 233 nM | 175 nM | 196 nM | 280 nM | 206 nM
